30 sequences from the nanobody polyreactivity screen of Harvey et al. (2022) can be followed below.

The nature of the data set: yeast display, Sf9 membrane polyspecificity reagent, FACS + sequencing; frameworks hold sequencing errors. In a few lines:
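Genes from sorted yeast were amplified by colony PCR, read by MiSeq 2 × 250 sequencing and filtered on CDR length. These cells carried a synthetic nanobody library in Saccharomyces cerevisiae BJ5465 and were sorted by FACS into low and high (top ~1%) gates on anti-HA and streptavidin fluorescence. Polyreactivity is labelled according to the gate of origin.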
As for “QVQLVESGGCIVQEGGSLRLSGAASGSTIRGNAMGWYRHAHGQEREFVADITRNGGRTYYADSVKGRFTISRDNAKNTVYLQMNSLKPEDTAVSYCAKRDAYFVSQRNMDYWGQGTQVTVSS”, the “polyreactivity (PSR sort gate)” value is “high polyreactivity”.
As to “QVQLVESGGGLVQAGGSLRLSCAASGRILVGYAMGWYRQAPGKERELVAAITGSGASTYYADSVKGRFKISRDNAKNTVYLQMNSLKPEDTAVYYCAASYFNYGVGIWYDYWGQGTQVTVSS”, the “polyreactivity (PSR sort gate)” value is “high polyreactivity”.
As for “QVQLVESGGGLVQAGGSLRLSCAASGRTIDSNAMGWYRQAPGKERELVAAISSDGGSTYYADSVKGRFTISRDNAKNTVYLQMNSLKPEDTAVYYCNAYYGRFPYYADDYWGQGTQVTVSS”, the “polyreactivity (PSR sort gate)” value is on record as “low polyreactivity”.
As for “QVQLVESGGGLVQAGGSLRLSCAPSGSIFNRNVMGWYRQAPGKERELVAAITRGGRTSYADSVKGRFTISRDNAKNTVYLQMNSLKPEDTAVYYCAARRGYWVVYWGQGTQVTVSS”, the “polyreactivity (PSR sort gate)” value is reported as “high polyreactivity”.
With “QVQLVESGGGLVQAGGSLRLSCAASGYIFIGYAMGWYRQAPGKERELVTYADSVKGRFTISRDNAKNTVYFQMNSRKPEDTAVYYCNKVPRRFSGLDENYWGQGTQVTVSS”, the “polyreactivity (PSR sort gate)” value is on record as “low polyreactivity”.
As for “QVQLVESGGGLVQAGGSLRLSCAASGSISLAYAMGWYRQAPGKERELVAAISFRTGRTFYADSVKGRFTISRDNAKNTVYLQMNSLKPEDTAVYYCAAENLDFYFEEYWGQGTQVTVSS”, the “polyreactivity (PSR sort gate)” value is listed as “high polyreactivity”.
“QVQLVESGGGLVQAGGSLRLSCAASGSTFGVNDMGWYRQAPWKERELVAAISRGAITNYADSVKGRFTISRDNAKNTVYLQMNSLKPEDTAVYYCAAGFVTYYVPQYKEYGYDYWGQGTQVTVSS”: the “polyreactivity (PSR sort gate)” value was “low polyreactivity”.
Regarding “QVQLVESGGGLVQAGGSLRLSCAASGFTFRYNAMGWYRQAPGKERELVATISWRGTSTYYADSVKGRFTISRDNAKNTVYLQMNSLKPEDTAVYYCATRSRDQYSVSYRLDYWGQGTQVTVSS”, the “polyreactivity (PSR sort gate)” value is “low polyreactivity”.
The entry for “HVHLVESGGGLVQAGGSLRLSCAASGRTFSTYAMGRYRQAPGKERELVATIRVSGSSTYYADSVKGRFTISRDNAKNTVYLQMNSLKQEDTEVYYCANRGLSRYYDYYYWGQGTQVTVSS” is “high polyreactivity”.
In the case of “QVQLVESGGGLVQAGGSLRLSCAASGSIFPWYAMGWYRQAPGKERELVAAITISGGSTHYADTVKGRFTISRDNAKYTVYLQMNSLKPEDTAVYYCATPRYPSYDYWGQGTQVTVSS”, the “polyreactivity (PSR sort gate)” value is on record as “low polyreactivity”.
For the sequence “QVQLVESGGGLVQAGGSLRLSCAASGRTFAGNAMGWYRQATGKERELVASITWTGGRTYYADSVKGRFTISRDNAKNTVYLQMNSLKPEDTAVYYCAARPDYYYFRGDYWGQGTQVTVSS”, the “polyreactivity (PSR sort gate)” value is “high polyreactivity”.
As for “QVQLVESGGGLVQAGGSLRLSCAASGSTFYPYAMGWYRQAPGKERELVAAITYRGGSTYYADSVKGRFTISRDNAKNTVYLQMNSLKPEDTAVYYCAADIGRHTDNYDPRYDYWGQGTQVTVSS”, the “polyreactivity (PSR sort gate)” value is given as “low polyreactivity”.
The entry for “QVQLVESGGGLVQAGGSLRLSCAASGRIFQPNAMGWYRQAPGKEREFVAAISSSGGYTFYADSVKGRFTISRDNAKNTVYLQMNSLKPEDTAVYYCAKRYGYTEYFYWGQGSQVTVSS” is “high polyreactivity”.
Regarding “QVQLVESGGGLVQAGGSLRLSCAASGSTFSSYAMGWYRQAPGKERELVAAISSSGGTSTYADSVKGRFTISRDNAKNTVYLQMNSLKPEDTAVYYCAARQYRRLRDYRHDYWGQGTQVTVSS”, the “polyreactivity (PSR sort gate)” value is recorded as “high polyreactivity”.
For the sequence “QVQLVESGGGLVQAGGSLRLSCAASGSIFYHYAMGWYRQAPGKERELVAAISWRGASTYYADSVKGRFTISRDNAKNTVYLQMNSLKPEDTAVYYCARLSSSHPLYRDEYWGQGTQVTVSS”, the “polyreactivity (PSR sort gate)” value is given as “high polyreactivity”.
On to “QVQLLESGGGLVQAGGSLRLSCAASGSTCGRNAMGWYRQAPGKERELVAAITSTGSTYYADSVKGRFTISRDNAKNTFYLQMNSLNPEDTAVYYCAAEARPYLFPAYKYPYYSWGQGTQVTVSS”, for which the “polyreactivity (PSR sort gate)” value was “low polyreactivity”.
The entry for “QVQLVESGGGVVQAGGSLRLSCAASGIIFYRYAMGWYRQAPGKERELVARITNGGNTYYADSVKGRFTISRDNAKNTVYLQMNSLKPEDTAVYYCAVRVFGYSPYSNWMYYWGQGTQVTVSS” is “high polyreactivity”; for “QVQLVESGGGLVQAGGSIRLSCAASGSTFFQYAMGWYRQAPGKERELVAAISSRGGRTYYADSVKGSFTISRDNAKNTVYLQMNSLKPEDTAVYYCAVDHLTRSGDGEYWGQGTQVTVSS” it is “high polyreactivity”.
With “QVQLVESGGGLVQAGGSLRLSCAASGITFDYYAMGWYRQAPGKERELVAAITSRGGSTYYADSVKGRFTISRDNAKNTVYLQMNSLKPEDTAVYYCAAVRSGYYNYWGQGTQVTVSS”, the “polyreactivity (PSR sort gate)” value was “high polyreactivity”.
For the sequence “QVQLVESGGGLVQAGGSLRLSCAASGIILYPYAMGWYRQAPGKERELVAAISWSGGSTYYADSVKGRFTISRDNAKNTVYLQMNSLKPEDTAVYYCAARPRRRYYGYDSWGQGTQVTVSS”, the “polyreactivity (PSR sort gate)” value is listed as “high polyreactivity”.
Take “QVQLVESGGGLVQAGGRLRLSCAASGRTFTQYTMGWYRQAPGKERELVAAISSGGSTYYADSVKGRFTISRDNAKNTVFLQMNSLNPEDTAVYYCAARSYYAKSRYYYWGQGTQVTVSS”: the “polyreactivity (PSR sort gate)” value is on record as “high polyreactivity”.
As for “QVQLVESGGGLVQAGGSLRLSCAASGRIFYKNAMGWYRPEPGKEREVVAAISSSGTRTYYADSVKGRFTISRENAKNTVSLQMNSLKPEDTAVYYCAAALGWYSAFGYWGQGTQVTVSS”, the “polyreactivity (PSR sort gate)” value is given as “high polyreactivity”.
For “QVQLVESGGGLVQAGGSLRLSCAASGFTFDWNAMGWYRQAPGKERELVAAISSSTGRTYYADSVKGRFTISRDNAKNTVYLQMNSLKPEDTAVYYCAASLGGRAGNYWGQGTQVTVSS”, the “polyreactivity (PSR sort gate)” value is “high polyreactivity”.
The entry for “QVQLVESGGGLVQAGGSLRLSCAASGRTIPSNAMGWYRQAPGKERELVAAITRSGGSTKYADSVKGRFTISRDNAKNTVYLQMNSLKPEDTAVYYCAGRYHSGSQVWYNYWGQGSQVTVSS” is “high polyreactivity”.
Turning to “QVQLVESGGGLVQAGGSLRLSCAASGFIFGYNGMGWYRQAPGKERELVAGITYSDGSTYYADSVKGRFTISRDNAKNTVYLQMNSLKPEDTAVYYCAVDVIYYWAEDYDYWGQGTQVTVSS”, the “polyreactivity (PSR sort gate)” value is on record as “low polyreactivity”.
In the case of “QVQLVESGGGLVQAGGSLRLSCAASGRIFSRYAMGWYRQAPGKERELVAAISRSGGSTYYADSVKGRFTISRDNAKNTVYLQMNSLKPEDTAVYYCAARNVFSYPPGSYYYWGQGTQVTVSS”, the “polyreactivity (PSR sort gate)” value is on record as “high polyreactivity”.
Turning to “QVQLVESGGGLVQAGGSLRLSCAASGLTFSRYAMGWYRQATGKERELVAAITSNGGSTYYADSVKGRFTISRDNAKNTVYLQMNSLKPDDTAVYYCATGYPIDLGREFDYWGQGIQVTVSS”, the “polyreactivity (PSR sort gate)” value is reported as “high polyreactivity”.
For the sequence “QVQLVESGGGLVKAGGSLRLSCAASGRTFGVYAMGWYRQAPGKEREFVAVISWSDDSTYYADSVKGRFTISRDNAKNTVYFQMNSLKPEDSAVYYCAAQTPYGMYYWRQGTQVTVSS”, the “polyreactivity (PSR sort gate)” value is on record as “low polyreactivity”.
The entry for “QVQLVESGGGLVQAGGSLRLSCAAYGSTVSSNAMGWYRQAPGKERELVAGISSSDVGTYYADSVKGRFTISRDYANNTVYLEMNSLKPDDTAVYYCNADHTGQFPSKLFPLGDNYWGQGTQVTVSS” is “low polyreactivity”.
For “QDQHVESGGGLVQAGGSLRLSCAASVITYGRYVMGWDRQAPGKERELVAAITGSGGSTYYADSVKGRFTISRDNAKNTVYLQMNSLKAEDTAVYYCAAAGGYRFDYWGQGTQVTVSS”, the “polyreactivity (PSR sort gate)” value was “high polyreactivity”.
